The results in this text go back to patent publication US11666658B2, “Rifamycin analogs and antibody-drug conjugates thereof” (Regeneron Pharmaceuticals, Inc., priority 2018, dated 2023).

The subject of one test is parental HEK293 cells. The test is described as follows: Electrochemiluminescence (ECL) antibody binding assay on cells, non-specific binding control. Details: species or system human. The protocol:
The ability of anti-MSR1 monoclonal antibodies to bind to human or monkey MSR1 expressing cells was determined using electrochemiluminescence (ECL) based detection.
Two cell lines overexpressing either human or monkey MSR1 were generated. To generate the human MSR1 overexpressing cell line, human embryonic kidney (HEK) 293 cells were engineered by transduction with hygromycin resistant lentiviral vector encoding full length human MSR1 (hMSR1, amino acids M1-L451 of accession number NP_619729.1) with a C-terminal Myc tag. The resulting cell line is referred to as HEK293.Myc.hMSR1. Similarly, to generate the monkey MSR1 overexpressing cell line, HEK293 cells were engineered by transfection with the geneticin resistant expression plasmid encoding full length monkey MSR1 (Macaca fascicularis, mfMSR1, amino acids M1-L451 of accession number XP_005562705.1). The resulting cell line is referred to as HEK293.mfMSR1 cells. To measure the ability of antibodies to bind to endogenously expressed human MSR1, THP-1 human monocytic cells were treated with 200 nM of phorbol 12-myristate 13-acetate (PMA; Sigma, Cat #P8139) for 72 hours to induce high MSR1 expression prior to antibody binding.
Luminescence intensity, measured in relative light units (RLU), was recorded to indicate the binding intensity of each antibody at the range of concentrations.

Test [1] has as its target T1, mouse MSR1 extracellular domain (His9-mMSR1) (Mus musculus, UniProt P30204).
T1 construct: mouse MSR1 extracellular domain expressed with a N-terminal nonahistidine tag; purchased R&D Systems 1797-MS
T1 sequence (P30204 79-458 limits assumed): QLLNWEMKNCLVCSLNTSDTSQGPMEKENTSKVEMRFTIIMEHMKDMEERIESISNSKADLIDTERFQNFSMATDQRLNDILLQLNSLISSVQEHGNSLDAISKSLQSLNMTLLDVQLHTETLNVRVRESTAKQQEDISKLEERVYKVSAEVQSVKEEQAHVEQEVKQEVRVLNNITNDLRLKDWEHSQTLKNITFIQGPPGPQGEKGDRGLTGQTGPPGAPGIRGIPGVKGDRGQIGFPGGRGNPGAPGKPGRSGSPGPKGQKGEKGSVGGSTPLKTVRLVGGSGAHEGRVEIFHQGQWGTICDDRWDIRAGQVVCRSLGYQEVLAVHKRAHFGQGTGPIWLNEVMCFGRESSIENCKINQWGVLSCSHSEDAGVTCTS
The test is described as follows: OCTET bio-layer interferometry binding kinetics, 25° C. Particulars: antibody-capture format. The protocol:
Binding affinities and kinetic constants of human anti-MSR1 antibodies for different MSR1 reagents were determined using a real time, label-free bio-layer interferometry assay on an OCTET® HTX biosensor platform (Pall FortéBio Corp., Menlo Park, Calif.). The experiment was performed at 25° C. in 10 mM HEPES, 150 mM NaCl, 3 mM EDTA, 0.05% v/v Surfactant Tween-20, and 1 mg/mL BSA, pH7.4 (HBS-EBT) buffer with the plate shaking at the speed of 1000 rpm. […] The binding of different MSR1 reagents to the captured anti-MSR1 monoclonal antibody was measured for 4 minutes and the dissociation of monoclonal antibody bound MSR1 reagent was monitored for 8-10 minutes in HBS-EBT buffer.
The association rate (ka) and dissociation rate (kd) were determined by fitting the real-time binding sensorgrams to a 1:1 binding model with mass transport limitation using Scrubber 2.0 c curve-fitting software. Binding dissociation equilibrium constant (KD) and dissociative half-life (t½) were calculated from the kinetic rates as: […]

B1: H1H21234N-N297Q: "An anti-MSR1 antibody H1H21234N containing a N297Q mutation, which eliminates N-linked glycosylation of the Fc at this site" (antibody, V domains shown)
VH: QVQLQESGPGLVKPSETLSLTCTVTGGSISRNYWSWIRQPPGKGLEWIGYIYYSGSIDYNPSLKSRVTISVDTSKNQFSLKLSSMTAADTAVYYCARDRWNWKYGMDVWGQGTTVIVSS
VL: EIVLTQSPGTLSLSPGERATLSCRASQTVRNNYLAWYHQKPGQAPRLLIYGASSRATGIPDRFSGSGSGTDFTLTISRLEPEDFTVYYCHQYGNSPWTFGQGTKMEIKR
As to B1, the “Ratio of 11 nM Antibody Binding Signal (RLU) to isotype control, HEK293” value with parental HEK293 cells is 9. Besides, the kd in test [1] (analyte His9-mMSR1, * = no dissociation observed, kd manually fixed at 5.00E−05) is listed as 5.00E−05* s^−1. Besides, the ka in test [1] (analyte His9-mMSR1, NB = no binding, IC = inconclusive) came to 38200 M⁻¹ s⁻¹.
